Test results reported in US20130109048A1, “METHOD FOR IN-VITRO MONITORING OF NEURONAL DISORDERS AND USE THEREOF” (ECOLE POLYTECHNIQUE FEDERALE DE LAUSANNE (EPFL), priority 2010, published 2013).
Entries after “also recorded” stand apart in the source; their conditions may differ.

Columns and labels:
[1] = tested on: rat primary cortical neurons; experiment: Neuronal viability by counts of NeuN-positive nuclei; type: cell-based; conditions: cultures treated with K252a 10 nM or 100 nM
Protocol: Cultures were washed with PBS and fixed in 4% paraformaldehyde (Fluka/Sigma, Buchs, Switzerland) or in methanol (Merck, Germany) for PSD95 (Post-synaptic density protein of 95 kDa) staining for 10 min at 4° C. Cultures were incubated with NeuN antibody which reacts with fox-3 (1:500, Chemicon, Temecula, Calif.) or 2B4 antibody which reacts with huntingtin (1:500 Millipore, Zug, Switzerland), antibody which reacts with postsynaptic density protein of 95 kDa (PSD95) (Sans et al., 2000, J. Neurosci. 20:1260-71) (1:200, Affinity Bioreagents, Golden, Colo.) and antibody which reacts neuronal class III beta-tubulin Tuj1 (Jepsen et al., 2000, Cell 102(6): 753-763) (1:2000, Covance, Emerville, Calif.) in PBS containing 10% normal goat serum (NGS, Gibco, Invitrogen, Basel, Switzerland) and 0.1% Triton X-100 (TX, Fluka, Sigma, Buchs, Switzerland). Cultures were rinsed three times in PBS and then incubated for 1 hour with fluorescent goat anti-mouse secondary antibodies (for NeuN: 1:1000 Cy3-conjugated antibody from Jackson Immunoresearch Laboratories, WestGrove, Pa.; for 2B4: 1:1000 Alexa Fluor® 488-conjugated antibodies from Invitrogen, Basel, Switzerland, for Tuj1: 1:1000 Alexa Fluor® 594-conjugated antibody from Invitorgen, Basel, Switzerland). Where indicated, cultures were stained with Hoechst 33342 dye (Invitrogen, Basel, Switzerland). […]

[2] = tested on: rat primary cortical neurons; experiment: MEA recording of spontaneous electrical activity (population bursts), TrkB inhibitor experiments; type: cell-based; conditions: K252a 10 nM or 100 nM; 30 min recordings 45 min and 24 h after addition; cultures at 14-15 DIV
Protocol: Cortical cells were prepared and cultured as described previously (Van Pelt et al., 2004, IEEE Trans. Biomed. Eng., 51: 2051-2062). Cells were plated on multielectrode arrays (MEAs) and/or culture dishes, with prior surface coating by polyethylenimine (10 mg/ml, Fluka) and laminin (0.02 mg/ml, Gibco) in Neurobasal medium (MEAs) or poly-L-lysine (0.01%) in water (culture dishes), respectively, which allow the cells to readily attach to the surface and extend neurites. Plating density was 1′500 cells/mm^2 for MEAs, allowing for quick network formation and high multichannel electrophysiological recordings efficiency. A lower density of 500 cells/mm^2 was used for culture dishes, to facilitate cell counting and morphological analysis. […]
After 5 min of accommodation time following the mounting of each MEA inside the recording setup, spontaneous electrical activity from the cultured neurons was detected, amplified, and recorded at each of the 60 substrate extracellular electrodes simultaneously for 30 min at 20 kHz/channel. Recorded traces consisted in electric voltage signals whose sudden small large amplitude fluctuations are known to be produced by the nerve impulse discharges emitted by neurons growing in close proximity to the substrate electrodes that detect them extracellularly, directly related to the firing of action potentials by the neurons in the proximity of each electrode. […]

[3] = tested on: htt171-82Q-expressing cortical cells; experiment: Counting of PSD95-positive plasma membrane subdomains (punctae) by immunostaining; type: cell-based, rat; conditions: BDNF 50 ng/ml added twice weekly; htt171-82Q cells
Protocol: Cultures were washed with PBS and fixed in 4% paraformaldehyde (Fluka/Sigma, Buchs, Switzerland) or in methanol (Merck, Germany) for PSD95 (Post-synaptic density protein of 95 kDa) staining for 10 min at 4° C. Cultures were incubated with NeuN antibody which reacts with fox-3 (1:500, Chemicon, Temecula, Calif.) or 2B4 antibody which reacts with huntingtin (1:500 Millipore, Zug, Switzerland), antibody which reacts with postsynaptic density protein of 95 kDa (PSD95) (Sans et al., 2000, J. Neurosci. 20:1260-71) (1:200, Affinity Bioreagents, Golden, Colo.) and antibody which reacts neuronal class III beta-tubulin Tuj1 (Jepsen et al., 2000, Cell 102(6): 753-763) (1:2000, Covance, Emerville, Calif.) in PBS containing 10% normal goat serum (NGS, Gibco, Invitrogen, Basel, Switzerland) and 0.1% Triton X-100 (TX, Fluka, Sigma, Buchs, Switzerland). […]
The synaptic status was investigated in htt171-82Q- and htt171-18Q-expressing cells. Numbers of PSD95-positive structures was quantified as described above as an indicator of postsynaptic specializations, which comprise zones where neurotransmitter receptors, particularly glutamate receptors, are clustered.

[4] = tested on: htt171-82Q-expressing cortical cells; experiment: MEA recording of spontaneous electrical activity in Huntington's disease cell model with BDNF; type: cell-based, rat; conditions: BDNF 50 ng/ml added twice weekly
Description: Cells modeling in-vitro HD-related cortical dysfunction were engineered for use in a method according to the invention for showing that the effects of molecular changes on synaptic changes in cortical microcircuits exposed to mutant htt fragments could be measured by a method according to the invention. To this end, cortical cells E16-E19 Wistar rat embryos (Charles River, France) were engineered by lentiviral gene transfer using Human Immunodeficiency Virus Type 1 (HIV-1)-derived vectors to express the first 171 amino acids of normal or mutated htt under the control of a tetracycline response element-containing promoter as described in Rudinskiy et al., 2009, J. Neurochem., 111: 460-472 (FIGS. 1A,B) to achieve high transduction efficiency and high levels of transgene expression in rat primary cortical neurons following the protocol below.
Plasmids encoding the first 171 amino acids of mutated htt (htt171-82Q) (FIG. 6, SEQ ID NO: 14) or wild-type htt (htt171-18Q) (FIG. 6, SEQ ID NO: 15) under the control of a tetracycline-regulated element promoter, or the tetracycline-regulatable transactivator (tTA1) under the control of a phosphoglycerate kinase promoter were used to prepare self-inactivating lentiviral vectors (FIG. 1A) as described previously (Regulier et al., 2003, Hum. Mol. Genet., 12: 2827-2836). Lentiviral particles were re-suspended in phosphate-buffered saline (PBS)+1% bovine serum albumin and the particle content of viral batches was assessed by p24 ELISA (RETROtek, Gentaur, Paris, France) (Viral titering involves capture of p24 viral protein from the sample on a microtiter plate and detection with a second anti-p24 antibody and visualization via a colorimeteric horseradish-generated product detected at 450 nm) Cells were plated as described below. On the day following cell plating, cultures were infected with lentiviruses at ratios of 150 ng p24/1000 cells (tTA1) and 120 ng p24/1000 cells (htt171-82Q or htt171-18Q) (FIG. 1B).
Cortical cells were prepared and cultured as described previously (Van Pelt et al., 2004, IEEE Trans. Biomed. Eng., 51: 2051-2062). Cells were plated on multielectrode arrays (MEAs) and/or culture dishes, with prior surface coating by polyethylenimine (10 mg/ml, Fluka) and laminin (0.02 mg/ml, Gibco) in Neurobasal medium (MEAs) or poly-L-lysine (0.01%) in water (culture dishes), respectively, which allow the cells to readily attach to the surface and extend neurites. Plating density was 1′500 cells/mm^2 for MEAs, allowing for quick network formation and high multichannel electrophysiological recordings efficiency. A lower density of 500 cells/mm^2 was used for culture dishes, to facilitate cell counting and morphological analysis. Medium containing Neurobasal, 2% B-27 supplement (GIBCO, Invitrogen Corporation, ref 17504) and 10% horse serum (from GIBCO, Invitrogen Corporation, ref. 16050-130) was changed three times per week by removing 0.7 ml and adding 1 ml of fresh medium. Where indicated, recombinant human BDNF (R&D Systems, Minneapolis, Minn., USA) at a concentration of 50 ng/ml was added to the medium twice a week starting from in vitro day 4.
Commercial MEAs with planar TiN substrate electrodes (MultichannelSystems, Reutlingen, Germany) such as described in Potter and De Marse, 2001, above were employed for recording over long-term experiments the spontaneous electrical activity of mammalian neurons, maintained under healthy conditions ex-vivo. […]

[5] = compared to non-BDNF-treated htt171-82Q sister cultures, 23 days in vitro

Molecule: COC(=O)[C@@]1(O)C[C@H]2O[C@]1(C)n1c3ccccc3c3c4c(c5c6ccccc6n2c5c31)C(=O)NC4 [TrkB inhibitor, K252a]
- neuronal viability (NeuN counts) [1]: without influencing neuronal viability
- PB (population burst) firing [2]: dose- and time-dependent loss of PB firing

B1: BDNF: recombinant human brain-derived neurotrophic factor (R&D Systems) (protein, UniProt P23560 19-247, looked up)
Neurotrophic factor BDNF …: APMKEANIRGQGGLAYPGVRTHGTLESVNGPKAGSRGLTSLADTFEHVIEELLDEDQKVRPNEENNKDADLYTSRVMLSSQVPLEPPLLFLLEEYKNYLDAANMSMRVRRHSDPARRGELSVCDSISEWVTAADKKTAVDMSGGTVTVLEKVPVSKGQLKQYFYETKCNPMGYTKEGCRGIDKRHWNSQCRTTQSYVRALTMDSKKRIGWRFIRIDTSCVCTLTIKRGR
- PSD95-positive bouton-like plasma membrane subdomains (punctae) [3]: increase PSD95-positive boutons; also recorded: reversed by BDNF treatment
- PB frequencies [4, 5]: significantly increased PB frequencies
- inter-burst intervals (IBIs) [4, 5]: decreased IBIs
- PB duration distribution ([4]; htt171-82Q cells): extended to both the IBI and duration distributions
- size of individual PBs (numbers of individual action potentials) ([4]; htt171-82Q cells): did not completely restore the size of individual PBs
- number of total spikes ([4]; htt171-82Q cells, 30 min recording): number of total spikes remained lower
